Measurements reported in patent US20230235058A1 (OXFORD UNIVERSITY INNOVATION, published 2023).

T1: soluble cynomolgus macaque BTLA extracellular domain (BTLA K31-R151) (cynomolgus macaque)
T1 construct: also called cynomolgus BTLA; cyno BTLA
T1 chain: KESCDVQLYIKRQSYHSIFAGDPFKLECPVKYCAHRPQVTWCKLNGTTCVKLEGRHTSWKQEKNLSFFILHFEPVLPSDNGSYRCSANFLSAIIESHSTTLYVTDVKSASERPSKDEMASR

T2: full length cynomolgus BTLA expressed on Jurkat cells (cynomolgus monkey, UniProt Q7Z6A9 31-289 (human entry))
T2 chain: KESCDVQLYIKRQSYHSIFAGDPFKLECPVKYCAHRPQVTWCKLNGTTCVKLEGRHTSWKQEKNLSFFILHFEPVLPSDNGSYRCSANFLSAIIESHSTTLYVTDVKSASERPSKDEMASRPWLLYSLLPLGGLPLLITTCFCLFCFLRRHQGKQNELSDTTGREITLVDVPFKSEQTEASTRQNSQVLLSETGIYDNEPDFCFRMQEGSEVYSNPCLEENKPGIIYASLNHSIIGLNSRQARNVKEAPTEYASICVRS


Columns and labels:
K81L = biological target: T3, K81L (Mus musculus); assay: flow cytometry, GFP-positive transfected HEK-293T cells, fluorochrome-conjugated antibody at 10 ug/ml, Geo-mean relative to wild type;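 further: cells express mutant human BTLA ectodomain fused to murine CD28 transmembrane and cytoplasmic parts, stained 48 h after transfection for 1 h at 4 °C alongside a Live/Dead dye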
T3 construct: transmembrane and intracellular regions; also called BTLA K81L construct
Procedure: (§1) Constructs encoding the human extracellular region of BTLA with the transmembrane and intracellular regions of murine CD28 were cloned into the bi-cistronic mammalian expression vector pGFP2-n2 (BioSignal Packard Ltd), which also encodes GFP. […] Mock and no-transfection controls were included with each experiment. Cells were harvested at 48 hours and stained with fluorochrome-conjugated anti-BTLA antibody at 10 μg/ml, alongside a Live/Dead marker, in PBS, 0.05% azide, 2% FCS (FACS buffer) for 1 h at 4° C. Cells were washed, pelleted and resuspended in 200 μl FACS buffer before being analysed on a BD FACSCanto flow cytometer. […] For each mutant the Geo-mean of anti-BTLA antibody binding to transfected cells was expressed as a percentage of binding to the wild-type receptor (FIG. 3b). A panel of anti-BTLA antibodies was assessed and any mutation that eliminated binding of all antibodies was excluded from the analysis, on the assumption that such mutations lead to drastic changes in protein folding or expression rather than indicating an antibody epitope.

Q43R = biological target: T4, Q43R (Mus musculus); assay: as above
T4 construct: transmembrane and intracellular regions; also called BTLA Q43R construct
T4 sequence (Q7Z6A9 31-151 Q43R): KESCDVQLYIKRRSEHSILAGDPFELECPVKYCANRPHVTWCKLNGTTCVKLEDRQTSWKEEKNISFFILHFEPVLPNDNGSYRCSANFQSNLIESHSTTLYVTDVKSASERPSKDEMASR
Procedure: as §1

E92R = biological target: T5, E92R (Mus musculus); assay: as above
T5 construct: transmembrane and intracellular regions; also called BTLA E92R construct
Procedure: as §1

Q120R = biological target: T6, Q120R (Mus musculus); assay: as above
T6 construct: transmembrane and intracellular regions; also called BTLA Q120R construct
Procedure: as §1

S47R = biological target: T7, S47R (Mus musculus); assay: as above
T7 construct: transmembrane and intracellular regions; also called BTLA S47R construct
T7 sequence (Q7Z6A9 31-151 S47R): as the sequence (Q7Z6A9 31-151 Q43R) above, with R13Q, S17R counted along it
Procedure: as §1

D35R = biological target: T8, D35R (Mus musculus); assay: as above
T8 construct: transmembrane and intracellular regions; also called BTLA D35R construct
T8 sequence (Q7Z6A9 31-151 D35R): as the sequence (Q7Z6A9 31-151 Q43R) above, with D5R, R13Q counted along it
Procedure: as §1

K137E = biological target: T9, K137E (Mus musculus); assay: as above
T9 construct: transmembrane and intracellular regions; also called BTLA K137E construct
T9 sequence (Q7Z6A9 31-151 K137E): as the sequence (Q7Z6A9 31-151 Q43R) above, with R13Q, K107E counted along it
Procedure: as §1

[1] = biological target: T1, soluble cynomolgus macaque BTLA …; assay: SPR (Biacore T200), single cycle kinetics at 37 C, antibody captured on anti-mouse IgG, soluble BTLA extracellular domain as analyte
Procedure: Mouse antibody capture kit (GE Healthcare) was used to coat a Series S CMS Sensor Chip (GE Healthcare) with polyclonal anti-mouse IgG. Anti-BTLA antibody was then captured onto the biosensor surface and a negative control antibody (clone Mopc21; Biolegend) captured in the reference channel. […] Association and dissociation rates were fitted using BiaEvaluation Software (GE Healthcare) after reference and blank subtractions, and dissociation constants were calculated (FIG. 1b).

[2] = biological target: T10, chimeric BTLA of humanised-BTLA mice (human extracellular region, murine transmembrane and signaling … (human; mouse, UniProt Q7TSA3 184-306, limits assumed); assay: cell-based or functional assay
T10 sequence (Q7TSA3 other isoform, or with tags, fused parts or gaps mutant limits assumed): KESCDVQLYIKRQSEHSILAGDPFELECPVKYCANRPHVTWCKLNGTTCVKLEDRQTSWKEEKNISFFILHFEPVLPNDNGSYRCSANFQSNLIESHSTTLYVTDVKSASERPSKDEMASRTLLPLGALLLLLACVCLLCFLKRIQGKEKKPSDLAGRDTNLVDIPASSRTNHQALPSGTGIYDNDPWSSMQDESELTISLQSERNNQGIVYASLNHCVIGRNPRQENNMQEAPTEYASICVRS

[3] = biological target: T10, chimeric BTLA of humanised-BTLA mice …; assay: cell-based or functional assay; remark: listed apart in the source
[4] = biological target: T2, full length cynomolgus BTLA expressed …; assay: cell-based or functional assay

Row | binding as % of binding to wild-type BTLA (K81L) | binding as % of binding to wild-type BTLA (Q43R) | binding as % of binding to wild-type BTLA (E92R) | binding as % of binding to wild-type BTLA (Q120R) | binding as % of binding to wild-type BTLA (S47R) | binding as % of binding to wild-type BTLA (D35R) | binding as % of binding to wild-type BTLA (K137E) | Kd [1] | koff [1] | kon [1] | AntiCD3/CD28 (CD4 T cell proliferation) repeat 1 [2] | AntiCD3/CD28 (CD4 T cell proliferation) repeat 2 [2] | AntiCD3/CD28 (CD69+ CD4 T cells) repeat 1 [2] | AntiCD3/CD28 (CD69+ CD4 T cells) repeat 2 [2] | MLR (CD4 T cell proliferation) repeat 1 [2] | MLR (CD4 T cell proliferation) repeat 2 [2] | inhibition of CD4 T cell proliferation in MLR, IC50 [3] | inhibition of NFkB-GFP reporter, IC50 [4] | Binder
1 | 116% | 55.2% | 73.3% | 89.9% | 108% | 71.2% | 55.6% | 0.995 nM | 0.000952 s⁻¹ | 957000 M⁻¹ s⁻¹ | 21 % inhibition | 28 % inhibition | 50 % inhibition | 47 % inhibition | 23 % inhibition | 18 % inhibition | 0.016 nM | 0.14 nM | 11.5.1 (antibody, V domains shown, mouse IgG1k hybridoma antibody) VH: EVQLQESGPSLVKPSQTLSLTCSVTGDSITSAYWNWIRKFPGNKLEYMGYISYSGSTYFNPSLKSRISITRNTSKNQYYLQLNSVTTEDTATYYCARSHYYGYYFDYWGHGTTLTVSS VL: DIVLTQSPASLAVSLGQRATISCRASETIDSYGDSLMHWYQQKAGQPPKLLIYRASNLESGIPARFSGSGSRTDFTLTINPVEADDVATYYCQQTDEDPYTFGGGTKLEIK
2 | 90.3% | 87.9% | 62.2% | 76.3% | 99.7% | 83.7% | 80.1% | – | 0.00627 s⁻¹ | 795000 M⁻¹ s⁻¹ | 23 % inhibition | 35 % inhibition | 58 % inhibition | 67 % inhibition | 30 % inhibition | 36 % inhibition | 0.029 nM | 0.22 nM | 2.8.6 (antibody, V domains shown, mouse IgG1k hybridoma antibody; also called clone 2.8.6) VH: QVQLKESGPGLVAPSQSLSITCTVSGFSLTTYGVHWVRQSPGKGLEWLGVMWPGGRTSYNPAPMSRLSISKDNSKSQVFLKMNSLQTDDTAMYYCVRGDYEYDYYAMDYWGQGTSVTVSS VL: QIVLSQSPAILSASPGEKVTMTCRASSSVSYMHWYQQKPGSSPKPWIYATSNLASGVPARFSGSGSGTSYSLTISRMEAEDAATYYCHQWSSNPYTFGGGTKLEIK
